Patent publication US20150344570A1 (published 2015)

T1: FcγRIIb (human, UniProt P31994 43-217)
T1 construct: extracellular domain; Soluble extracellular domain with C-terminal His tag, used as analyte in Biacore; also called FcgRIIb; 2b; not shown: His tag attached to the C terminus
T1 sequence (looked up): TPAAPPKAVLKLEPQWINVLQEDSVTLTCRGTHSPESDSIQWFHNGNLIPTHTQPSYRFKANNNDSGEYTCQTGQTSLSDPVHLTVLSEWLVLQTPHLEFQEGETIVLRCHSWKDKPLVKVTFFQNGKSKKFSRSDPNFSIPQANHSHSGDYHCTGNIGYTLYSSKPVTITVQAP

B1: GpH7-A5/GpH7-B3 variant G237_20W/GpL16-k0 (antibody, human IgG1, kappa)
heavy 1: not shown
heavy 2: not shown
light: DIVMTQSPLSLPVTPGEPASISCQASESLVHSNRNTYLHWYLQKPGQSPQLLIYKVSNRFSGVPDRFSGSGSGTDFTLKISRVEAEDVGVYYCSQNTHVPPTFGQGTKVEIERTVAAPSVFIFPPSDEQLKSGTASVVCLLNNFYPREAKVQWKVDNALQSGNSQESVTEQDSKDSTYSLSSTLTLSKADYEKHKVYACEVTHQGLSSPVTKSFNRGEC
notes: Heterodimerized anti-glypican-3 IgG1; alteration in the GpH7-B3 chain only; also called He Ab
B2: GpH7-A5/GpH7-B3 variant S239_10E/GpL16-k0 (antibody, human IgG1, kappa)
heavy 1: not shown
heavy 2: not shown
light: B1 light
notes: as for B1
B3: GpH7-A5/GpH7-B3 variant L235_20W/GpL16-k0 (antibody, human IgG1, kappa)
heavy 1: not shown
heavy 2: not shown
light: B1 light
notes: as for B1
B4: GpH7-A5/GpH7-B3 variant L234_09D/GpL16-k0 (antibody, human IgG1, kappa)
heavy 1: not shown
heavy 2: not shown
light: B1 light
notes: as for B1
B5: GpH7-A5/GpH7-B3 variant G237_08L/GpL16-k0 (antibody, human IgG1, kappa)
heavy 1: not shown
heavy 2: not shown
light: B1 light
notes: as for B1
B6: GpH7-A5/GpH7-B3 variant G237_06M/GpL16-k0 (antibody, human IgG1, kappa)
heavy 1: not shown
heavy 2: not shown
light: B1 light
notes: as for B1
B7: GpH7-A5/GpH7-B3 variant G237_19Q/GpL16-k0 (antibody, human IgG1, kappa)
heavy 1: not shown
heavy 2: not shown
light: B1 light
notes: as for B1
B8: GpH7-A5/GpH7-B3 variant G237_18N/GpL16-k0 (antibody, human IgG1, kappa)
heavy 1: not shown
heavy 2: not shown
light: B1 light
notes: as for B1
B9: GpH7-A5/GpH7-B3 variant P238_08L/GpL16-k0 (antibody, human IgG1, kappa)
heavy 1: not shown
heavy 2: not shown
light: B1 light
notes: as for B1
B10: GpH7-A5/GpH7-B3 variant G237_04F/GpL16-k0 (antibody, human IgG1, kappa)
heavy 1: not shown
heavy 2: not shown
light: B1 light
notes: as for B1
B11: GpH7-A5/GpH7-B3 variant P238_09D/GpL16-k0 (antibody, human IgG1, kappa)
heavy 1: not shown
heavy 2: not shown
light: B1 light
notes: as for B1
B12: GpH7-A5/GpH7-B3 variant L235_15Y/GpL16-k0 (antibody, human IgG1, kappa)
heavy 1: not shown
heavy 2: not shown
light: B1 light
notes: as for B1
B13: GpH7-A5/GpH7-B3 variant L235_09D/GpL16-k0 (antibody, human IgG1, kappa)
heavy 1: not shown
heavy 2: not shown
light: B1 light
notes: as for B1
B14: GpH7-A5/GpH7-B3 variant P238_04F/GpL16-k0 (antibody, human IgG1, kappa)
heavy 1: not shown
heavy 2: not shown
light: B1 light
notes: as for B1
B15: GpH7-A5/GpH7-B3 variant P238_06M/GpL16-k0 (antibody, human IgG1, kappa)
heavy 1: not shown
heavy 2: not shown
light: B1 light
notes: as for B1
B16: GpH7-A5/GpH7-B3 variant S239_09D/GpL16-k0 (antibody, human IgG1, kappa)
heavy 1: not shown
heavy 2: not shown
light: B1 light
notes: as for B1
B17: GpH7-A5/GpH7-B3 variant V266_06M/GpL16-k0 (antibody, human IgG1, kappa)
heavy 1: not shown
heavy 2: not shown
light: B1 light
notes: as for B1
B18: GpH7-A5/GpH7-B3 variant S239_01G/GpL16-k0 (antibody, human IgG1, kappa)
heavy 1: not shown
heavy 2: not shown
light: B1 light
notes: as for B1

Biological target: T2, FcγRIa (human, UniProt P12314 16-292)
T2 construct: extracellular domain; Soluble extracellular domain with C-terminal His tag, used as analyte in Biacore; also called FcgRI; 1a; not shown: His tag attached to the C terminus
T2 sequence (P12314 16-292): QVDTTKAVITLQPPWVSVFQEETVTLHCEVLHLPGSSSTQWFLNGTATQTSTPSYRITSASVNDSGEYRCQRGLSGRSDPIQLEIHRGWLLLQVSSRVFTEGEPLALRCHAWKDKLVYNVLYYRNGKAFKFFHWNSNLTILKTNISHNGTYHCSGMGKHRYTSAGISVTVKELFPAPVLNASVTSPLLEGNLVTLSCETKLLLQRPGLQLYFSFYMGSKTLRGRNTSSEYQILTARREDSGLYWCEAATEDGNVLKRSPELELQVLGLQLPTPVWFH
Assay: SPR (Biacore), antibody captured, FcγR as analyte; relative to GpH7-A5/GpH7-B3/GpL16-k0 = 100

Row | He/Con_1a | Binder
1 | 78.4 % of control (=100) | B1
2 | 105 % of control (=100) | B2
3 | 92.8 % of control (=100) | B3
4 | 97.8 % of control (=100) | B4
5 | 79.6 % of control (=100) | B5
6 | 81.6 % of control (=100) | B6
7 | 82.8 % of control (=100) | B7
8 | 82.5 % of control (=100) | B8
9 | 101 % of control (=100) | B9
10 | 81.5 % of control (=100) | B10
11 | 96 % of control (=100) | B11
12 | 97.1 % of control (=100) | B12
13 | 84.8 % of control (=100) | B13
14 | 101 % of control (=100) | B14
15 | 102 % of control (=100) | B15
16 | 101 % of control (=100) | B16
17 | 99.7 % of control (=100) | B17
18 | 101 % of control (=100) | B18

Biological target: T1, FcγRIIb
Assay: as above

Row | He/Con_2b | Binder
19 | 193 % of control (=100) | B1
20 | 181 % of control (=100) | B2
21 | 147 % of control (=100) | B3
22 | 150 % of control (=100) | B4
23 | 148 % of control (=100) | B5
24 | 130 % of control (=100) | B6
25 | 108 % of control (=100) | B7
26 | 180 % of control (=100) | B8
27 | 204 % of control (=100) | B9
28 | 149 % of control (=100) | B10
29 | 221 % of control (=100) | B11
30 | 149 % of control (=100) | B12
31 | 106 % of control (=100) | B13
32 | 312 % of control (=100) | B14
33 | 174 % of control (=100) | B15
34 | 206 % of control (=100) | B16
35 | 251 % of control (=100) | B17
36 | 144 % of control (=100) | B18

Biological target: T2, FcγRIa
Assay: SPR (Biacore); He/Con_1a divided by He/Con_2b (binding to FcγRIa against binding to FcγRIIb)
Procedure: The heterodimerized antibodies He Abs in which one of the H chains was introduced with an alteration were assayed for their binding activities to each activating FcγR and inhibitory FcγR according to the method described in Example 4. […] The activating FcγRs in FIGS. 26, 27, 28, and 29 are FcγRIa, FcγRIIa (R), FcγRIIa (H), and FcγRIIIa, respectively.
Analysis of interaction between objective antibody and the FcγR was carried out using Biacore T100 (GE Healthcare). HBS-EP+ (GE Healthcare) was used as the running buffer, and the measurement temperature was set to 25° C. Chips produced by immobilizing the antigen peptide by the amine coupling method to a Series S Sencor Chip CM5 (GE Healthcare), or alternatively, chips produced by allowing preliminarily biotinylated antigen peptides to interact with and immobilize onto a Series S Sensor Chip SA (certified) (GE Healthcare) were used. Antibodies of interest were captured onto an antigen peptide-immobilized chip, and allowed to interact to each FcγR diluted with running buffer. To regenerate and repeatedly use the chip, the antibodies captured on the chip were washed off by reacting 10 mM glycine-HCl, pH 1.5.

Row | He_1a/2b (Ia/IIb) | Binder
37 | 0.41 ratio | B1
38 | 0.58 ratio | B2
39 | 0.63 ratio | B3
40 | 0.65 ratio | B4
41 | 0.54 ratio | B5
42 | 0.63 ratio | B6
43 | 0.77 ratio | B7
44 | 0.46 ratio | B8
45 | 0.49 ratio | B9
46 | 0.55 ratio | B10
47 | 0.43 ratio | B11
48 | 0.65 ratio | B12
49 | 0.8 ratio | B13
50 | 0.32 ratio | B14
51 | 0.59 ratio | B15
52 | 0.49 ratio | B16
53 | 0.4 ratio | B17
54 | 0.7 ratio | B18
